Reference: US20230313187A1, “MODIFICATIONS OF MAMMALIAN CELLS USING ARTIFICIAL MICRO-RNA TO ALTER THEIR PROPERTIES AND THE COMPOSITIONS OF THEIR PRODUCTS” (DNA TWOPOINTO INC., priority 2020, published 2023)

Key:
Assay type in all cases: cell-based
[1] = test system: Cricetulus griseus Neu2 mRNA; assay: Sialylation of an Fc fusion protein from CHO cells with Neu2-targeting amiRNA (capillary isoelectric focusing); details: 14 day fed-batch; Fc fusion to a growth factor receptor; FIG. 6B vs reference standard
Text: The multi-hairpin amiRNA was cloned into a piggyBac-like transposon to the 3′ of a spacer polynucleotide with nucleotide sequence SEQ ID NO: 280, and operably linked to a PGK promoter with nucleotide sequence SEQ ID NO: 385. The nucleotide sequence of the multi-hairpin amiRNA gene is given as SEQ ID NO: 593. The piggyBac-like transposon further comprised a selectable marker conferring resistance to puromycin with amino acid sequence SEQ ID NO: 302. The piggyBac-like transposon further comprised a target sequence 5′-TTAA-3′ immediately followed by an ITR with nucleotide sequence SEQ ID NO: 427, immediately followed by further transposon end sequences with nucleotide sequence SEQ ID NO: 425. The piggyBac-like transposon further comprised nucleotide sequence SEQ ID NO: 426, immediately followed by a second ITR with nucleotide sequence SEQ ID NO: 428, immediately followed by the target sequence 5′-TTAA-3′. […]
After the transfected cell pools had recovered to >95% viability, we tested their ability to produce sialylated protein. […] Protein was purified from the culture supernatant using protein A affinity chromatography, reduced with dithiothreitol, and analyzed by capillary isoelectric focusing (cIEF). […]

[2] = test system: Cricetulus griseus alpha-(1,6)-fucosyl transferase (FUT8) mRNA; assay: CHO pool with amiRNA as host for transient production of afucosylated antibodies; details: 7-day transient culture; amiRNA linked to EF1 promoter; FIG. 5B
Text: The multi-hairpin amiRNA with nucleotide sequence SEQ ID NO: 194 comprised three hairpins with guides complementary to the mRNA for Cricetulus griseus alpha-(1,6)-fucosyl transferase (FUT8), as described in Section 6.1.1.1. The multi-hairpin amiRNA sequence was placed to the 3′ of an open reading frame encoding a red fluorescent protein (with nucleotide sequence SEQ ID NO: 279) and followed by a rabbit globin polyadenylation sequence. The multi-hairpin amiRNA gene was cloned into a Bombyx transposon vector in which it was operably linked to an EF1 promoter (with nucleotide sequence SEQ ID NO: 314). […] It further comprised an open reading frame encoding puromycin selectable marker with polypeptide sequence SEQ ID NO: 302. […]
Transposons were co-transfected with mRNA encoding transposase with polypeptide sequence SEQ ID NO: 502 into a CHO cell line expressing no heterologous antibody sequences. […] Protein was purified from the culture supernatant using protein A affinity chromatography, reduced with dithiothreitol, and analyzed on an Agilent QTOF mass spectrometer. […]

[3] = test system: Cricetulus griseus alpha-(1,6)-fucosyl transferase (FUT8) mRNA; assay: Antibody titer and fucosylation with different numbers of amiRNA hairpins in the 3' UTR of the glutamine synthetase selectable marker
Text: One- two- or three-hairpin amiRNAs were incorporated into the 3′ UTR of a glutamine synthetase selectable marker on a transposon. The multi-hairpin amiRNA with nucleotide sequence SEQ ID NO: 194 comprised three hairpins as described in Section 6.1.1.1.
These amiRNA sequences were placed to the 3′ of an open reading frame encoding a glutamine synthetase protein (with polypeptide sequence SEQ ID NO: 307) and followed by a human globin polyadenylation sequence. The amiRNA genes were cloned into a transposon vector in which they were operably linked to a Pol II promoter. The transposon further comprised genes encoding an antibody with mature light chain polypeptide sequence SEQ ID NO: 286 and mature heavy chain polypeptide sequence SEQ ID NO: 288. The transposon further comprised a left end comprising a 5′-TTAA-3′ target sequence immediately followed by an ITR with nucleotide sequence SEQ ID NO: 423 (which is an embodiment of SEQ ID NO: 421) and additional nucleotide sequence SEQ ID NO: 417 and a right end comprising nucleotide sequence SEQ ID NO: 419 immediately followed by an ITR with nucleotide sequence SEQ ID NO: 424 (which is an embodiment of SEQ ID NO: 422) immediately followed by a 5′-TTAA-3′ target sequence. The transposon was configured so that the multi-hairpin amiRNA, the glutamine synthetase gene and the genes for both antibody chains, as well as all necessary operably linked control elements were transposable by a corresponding transposase.
Transposons were co-transfected with mRNA encoding transposase with polypeptide sequence SEQ ID NO: 472 into a CHO cell line with no functional glutamine synthetase gene. The pool of transfected cells were grown in the absence of glutamine added to the media until their viability reached 95%. They were then grown in a 14 day fed-batch using Sigma Advanced Fed Batch media. Protein was purified from the culture supernatant using protein A affinity chromatography, reduced with dithiothreitol, and analyzed on an Agilent QTOF mass spectrometer. We integrated the area under the peaks at 50,456 Da (corresponding to the heavy chain modified by G0: the conserved heptasaccharide core composed of 2 N-acetylglucosamine, 3 mannose and 2 other N-acetylglucosamine residues that are β-1,2 linked to α-6 mannose and α-3 mannose, forming two arms) and 50,602 (corresponding to the heavy chain modified by G0F: the conserved heptasaccharide core plus a fucose residue) to calculate the relative proportion of fucosylated and afucosylated antibody.
Table 5. Inhibition of antibody fucosylation with different numbers of amiRNA hairpins. Transposons were constructed as described in Section 6.1.2.1. The SEQ ID NO of the amiRNA gene including the glutamine synthetase ORF and the globin polyA sequence is given in column A. The Pol II promoter shown in column B was operably linked to the amiRNA whose SEQ ID NO is shown in column C. The amiRNA comprised the number of hairpins shown in column D. Following a 14-day fed batch antibody production run, the culture supernatant contained the concentration of antibody shown in column E. The percentage of antibody that was afucosylated is shown in column F, the percentage that was fucosylated is shown in column G. BDL=below detection limit.

[4] = test system: Cricetulus griseus alpha-(1,6)-fucosyl transferase (FUT8) mRNA; assay: Antibody titer and fucosylation with multi-hairpin amiRNA in the GS 3' UTR driven by different promoters and inhibitory 5' UTRs; details: 14 day fed-batch
Text: The three-hairpin amiRNA with nucleotide sequence SEQ ID NO: 194 was incorporated into the 3′ UTR of a glutamine synthetase selectable marker on a transposon. The amiRNA sequence was placed to the 3′ of an open reading frame encoding a glutamine synthetase protein with polypeptide sequence SEQ ID NO: 307 and was followed by a human globin polyadenylation sequence. The amiRNA gene was cloned into different transposon vectors in which it was operably linked to different Pol II promoters. Each transposon further comprised genes encoding an antibody with mature light chain polypeptide sequence SEQ ID NO: 286 and mature heavy chain polypeptide sequence SEQ ID NO: 288. […]
Transposons were co-transfected with mRNA encoding transposase with polypeptide sequence SEQ ID NO: 472 into a CHO cell line with no functional glutamine synthetase gene. […] Protein was purified from the culture supernatant using protein A affinity chromatography, reduced with dithiothreitol, and analyzed on an Agilent QTOF mass spectrometer. […]

B1: SEQ ID NO: 568: three-hairpin amiRNA, guides SEQ ID NOs 92, 91, 90 complementary to Cricetulus griseus Neu2 mRNA (nucleic acid)
chain: ATCTGATCTTCTGAAGAAAATATATTTCTTTTTATTCATAGCTCTTAACTAGTGGTGATAGCAATGTCAGCAGTGCCTATGAAGTCTATGAAGAGTCAGGGTGAAGCCACAGATGCCTGACTCTTAATAGACTTCACAAGTAAGGTTGACCATACTCTACTCTAGAGTTGTGTTTTAATGTATATTAATGTTACTAATGTGTTTACTAGTGGTGATAGCAATGTCAGCAGTGCCTTACAAGTTTACTCACTACCTGGGTGAAGCCACAGATGCCAGGTAGTGCGTAAACTTGTCAAGTAAGGTTGACCATACTCTACTCTAGGTTATTTTTAGTATGATTCTGTAAAAATGAATTAATACTAACTAGTGGTGATAGCAATGTCAGCAGTGCCTTAATTTATTAAGACTCATCCAAGTGAAGCCACAGATGTTGGATGAGTATTAATAAATTCAAGTAAGGTTGACCATACTCTACTCTAGTCAGTTTTATTGATAGTCTTTTCAGTATTATTGATAATCTT
- sialylation of the produced protein (cIEF glycoform peaks) [1]: substantially reduces the removal of sialic acid from proteins produced by CHO cells

B2: SEQ ID NO: 194: three-hairpin amiRNA, guides SEQ ID NOs 23, 24, 25 to Cricetulus griseus FUT8 mRNA, unstructured sequences between hairpins (nucleic acid)
chain: ATCTGATCTTCTGAAGAAAATATATTTCTTTTTATTCATAGCTCTTAACTAGTGGTGATAGCAATGTCAGCAGTGCCTGGAAAAACATCCATTCTCATTCGTGAAGCCACAGATGGAATGAGAATAGATGTTTTTCAAAGTAAGGTTGACCATACTCTACTCTAGTTATATTCTTTAGGCACGAATGTGTGTTTAAAAAAAATAAAAACTAGTGGTGATAGCAATGTCAGCAGTGCCTTTAAATTACATAATGTGGCAGTGTGAAGCCACAGATGACTGCCACATCATGTAATTTACAAGTAAGGTTGACCATACTCTACTCTAGAGTTGTGTTTTAATGTATATTAATGTTACTAATGTGTTTACTAGTGGTGATAGCAATGTCAGCAGTGCCTTATTTTACTGTGCATGGGCTTGGTGAAGCCACAGATGCAAGCCCATGAACAGTAAAATCAAGTAAGGTTGACCATACTCTACTCTAGTCAGTTTTATTGATAGTCTTTTCAGTATTATTGATAATCTT
- antibody fucosylation (G0F peak) [2]: produced only afucosylated antibodies
- fucosylation of the antibody ([3]; CMV and EEF2 promoter operably linked to the amiRNA): completely eliminated fucosylation of the antibody
- antibody titer in the culture supernatant ([3]; CMV promoter): 163 mg/L
- antibody titer in the culture supernatant ([3]; EEF2 promoter): 443 mg/L
- antibody titer ([3]; weaker (PGK) promoter operably linked to glutamine synthetase, amiRNA in 3' UTR): 835 mg/L
- antibody fucosylation ([3]; weaker (PGK) promoter, amiRNA in GS 3' UTR, natural level around 80-85%): completely prevented
- antibody fucosylation [4]: completely suppressed
- antibody titer [4]: exceeded 3 g/L
